Data on two molecules can be found in paper PMC9239117.

Assay [1] deals with Human metapneumovirus (HMPV) phosphoprotein (P), strain CAN97-83 (Human metapneumovirus (strain CAN97-83)) (UniProt Q8B9Q8).
Assay [2] shares this target. This is another data set of the same source.

Molecule “HMPV N^0-P construct: full-length N (1 to 394) fused to a P peptide (1 to 40) (from UniProt Q6WBA1 1-394; Q8B9Q8 1-40)” returned a turbidity assay, absorbance at 395 nm against time (5-min intervals), N^0-P (40 uM) with anion exchange-purified P (40 uM), against N^0-P alone (peak above 0.6) (absorbance at 395 nm) in assay [1] of 0.3.

B1: HMPV wild-type nucleoprotein N, RNA-bound rings (N-RNA), strain CAN97-83 (natural protein)
chain: MSLQGIHLSDLSYKHAILKESQYTIKRDVGTTTAVTPSSLQQEITLLCGEILYAKHADYKYAAEIGIQYISTALGSERVQQILRNSGSEVQVVLTRTYSLGKVKNNKGEDLQMLDIHGVEKSWVEEIDKEARKTMATLLKESSGNIPQNQRPSAPDTPIILLCVGALIFTKLASTIEVGLETTVRRANRVLSDALKRYPRMDIPKIARSFYDLFEQKVYYRSLFIEYGKALGSSSTGSKAESLFVNIFMQAYGAGQTMLRWGVIARSSNNIMLGHVSVQAELKQVTEVYDLVREMGPESGLLHLRQSPKAGLLSLANCPNFASVVLGNASGLGIIGMYRGRVPNTELFSAAESYAKSLKESNKINFSSLGLTDEEKEAAEHFLNVSDDSQNDYE
On to B1, for which the turbidity assay, absorbance at 395 nm against time (5-min intervals), N-RNA (40 uM) with heparin-purified P (40 uM), against N-RNA alone (absorbance at 395 nm) in assay [2] was found to be 0.2.
